# Reference: patent publication US20180044416A1
# Target: human FcRn with human beta2M on MDCK II clone 15 cells (human) (UniProt P55899)
# Assay: cell-based or functional assay
Substance,Blockade of IgG intracellular uptake EC50 [µg/mL],Blockade of IgG recycling EC50 [µg/mL],"Blockade of IgG recycling, maximal inhibition [%]"
"IgG4 IgM tail-piece, V308F (Fc fusion)",0.42,0.56,
"IgG4 IgM tail-piece, T307A (Fc fusion)",0.5,,
"IgG1 IgM tail-piece, H310L (Fc fusion)",,,45
"IgG1 IgM tail-piece, V308F (Fc fusion)",0.12,0.073,

# Next, values leading:
Blockade of IgG intracellular uptake EC50 [µg/mL],Blockade of IgG recycling EC50 [µg/mL],"Blockade of IgG recycling, maximal inhibition [%]",Substance
0.51,0.42,,"IgG4 IgM tail-piece, V308P (Fc fusion)"
0.34,0.55,,"IgG1 IgM tail-piece, V308P (Fc fusion)"
0.54,0.35,,"IgG1 IgM tail-piece, T307A (Fc fusion)"
